Tests used:
[1] = tested on: Cas13b-t1-REPAIR R and H to A in both HEPN domains (numbering not given) (Atlantic deep subsurface metagenome); experiment: cell_activity; settings: non-targeting control
[2] = tested on: Cas13b-t3-REPAIR R and H to A in both HEPN domains (numbering not given) (Planctomycetes bacterium isolate B28_G16); experiment: cell_activity; settings: non-targeting control

Substance | activity (normalized RLU) [1] | activity (normalized RLU) [2]
non-targeting editing gRNA (b-t1) ; Cypridina luciferase W85X mRNA | 0.00795 | 
non-targeting editing gRNA (b-t3) ; Cypridina luciferase W85X mRNA |  | 0.00368
